The text below walks through data of publication PMC4281067, “New Insight into Secreted Ribonuclease Structure: Binase Is a Natural Dimer” (PLoS ONE, 2014).

This data set deals with the molecule itself. Description: SDS-PAGE (SDS-resistant dimer band) with LC-MS/MS of the excised bands; lyophilised pure binase on 15% SDS-PAGE with 0.1% SDS; 12 and 25 kDa bands, both detected by anti-binase immunoblot and in-gel RNase activity; 25 kDa band not fully lost with 2% SDS or 4-8 M urea; bands trypsin-digested and identified by LC-MS/MS. On the technique in general: In western blotting, separated proteins are transferred to a membrane and probed.

B1: binase (guanyl-preferring RNase secreted by Bacillus pumilus), wild-type enzyme designated as "native" binase (enzyme, Bacillus pumilus (former B. intermedius), UniProt P00649 54-162, looked up)
chain: AVINTFDGVADYLIRYKRLPDNYITKSQASALGWVASKGNLAEVAPGKSIGGDVFSNREGRLPSASGRTWREADINYVSGFRNADRLVYSSDWLIYKTTDHYATFTRIR
notes: binase, secreted RNase of Bacillus pumilus (former B. intermedius); single chain of 109 amino acids, molecular weight 12.3 kDa; secreted enzyme isolated from the medium; binase has no sulfhydryl groups; also called B. intermedius RNase; wild-type binase; source: isolated from the medium of B. pumilus 7P, purified (MonoS), lyophilised; also unpurified B. pumilus culture fluid
Take B1: the stoichiometry N (commonly the number of molecules, sites or subunits per partner or assembly) was found to be 2.
